From PMC6153294 (The Journal of Biological Chemistry, 2018)

Biological target: T1, recombinant FGFR1c extracellular domain protein (Homo sapiens, UniProt P11362)
T1 construct: FGF receptor 1, 'c' splice isoform, human, extracellular domain; also called human FGFR1c
Assay: SPR; kinetic-binding assay on Biacore T200: His-tagged human β-Klotho and FGFR1c captured (about 40 RU and 60 RU) on immobilised mouse anti-His antibody (CM5); 39F7 (100 nM) and FGF21 (500 nM) injected in PBS, 0.1 mg/ml BSA, 0.005% Surfactant P20
Details: both partners purified

T1 sequence (P11362 22-376): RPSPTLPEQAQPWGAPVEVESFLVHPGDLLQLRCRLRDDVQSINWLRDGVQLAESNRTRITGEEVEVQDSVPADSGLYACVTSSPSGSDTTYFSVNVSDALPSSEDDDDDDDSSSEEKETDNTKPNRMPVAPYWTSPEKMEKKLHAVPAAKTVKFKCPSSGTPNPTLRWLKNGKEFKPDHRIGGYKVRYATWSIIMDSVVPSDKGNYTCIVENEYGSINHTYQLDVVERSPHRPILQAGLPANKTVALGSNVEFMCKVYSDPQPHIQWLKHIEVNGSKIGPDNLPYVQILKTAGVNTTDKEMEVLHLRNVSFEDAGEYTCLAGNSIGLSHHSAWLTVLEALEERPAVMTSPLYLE

binding result: no binding (tested: 100 nM)
B1: 39F7 agonistic monoclonal antibody against β-Klotho (full IgG) (antibody, V domains shown)
VH: QVQLVESGGGVVQPGRSLRLSCAASGFTFSNYGIHWVRQAPGKGLEWVAVIWYDGSIKYYADSVKGRFTISRDNSKNTLYLQMNSLRAEDTAVYYCARDRAAAGLHYYYGMDVWGQGTTVTVSS
VL: not shown
notes: Identified from an immunisation campaign in XenoMouse with a complex of β-Klotho and FGFR1c; also called mAb 39F7; 39F7 IgG; copies: 2 + 2
